Measured values taken from US20090312251.

Legend:
[1] = target: His-YAP-SA (recombinant hexahistidine-tagged YAP serine to alanine mutant, pET-15b)
[2] = target: YAP S127A mutant (human YAP, transfected, Flag- or HA-tagged)

| Protein | in-vitro kinase assay, 32P-labeled YAP by autoradiography [1] | phosphorylation of YAP in co-transfected WW45-deficient keratinocytes (Western blot) [2] |
| --- | --- | --- |
| LATS1 (human cDNA, GenBank Accession No. NP-004681.1, Flag- or HA-tagged) (protein) MKRSEKPEGYRQMRPKTFPASNYTVSSRQMLQEIRESLRNLSKPSDAAKAEHNMSKMSTEDPRQVRNPPKFGTHHKALQEIRNSLLPFANETNSSRSTSEVNPQMLQDLQAAGFDEDMVIQALQKTNNRSIEAAIEFISKMSYQDPRREQMAAAAARPINASMKPGNVQQSVNRKQSWKGSKESLVPQRHGPPLGESVAYHSESPNSQTDVGRPLSGSGISAFVQAHPSNGQRVNPPPPPQVRSVTPPPPPRGQTPPPRGTTPPPPSWEPNSQTKRYSGNMEYVISRISPVPPGAWQEGYPPPPLNTSPMNPPNQGQRGISSVPVGRQPIIMQSSSKFNFPSGRPGMQNGTGQTDFMIHQNVVPAGTVNRQPPPPYPLTAANGQSPSALQTGGSAAPSSYTNGSIPQSMMVPNRNSHNMELYNISVPGLQTNWPQSSSAPAQSSPSSGHEIPTWQPNIPVRSNSFNNPLGNRASHSANSQPSATTVTAITPAPIQQPVKSMRVLKPELQTALAPTHPSWIPQPIQTVQPSPFPEGTASNVTVMPPVAEAPNYQGPPPPYPKHLLHQNPSVPPYESISKPSKEDQPSLPKEDESEKSYENVDSGDKEKKQITTSPITVRKNKKDEERRESRIQSYSPQAFKFFMEQHVENVLKSHQQRLHRKKQLENEMMRVGLSQDAQDQMRKMLCQKESNYIRLKRAKMDKSMFVKIKTLGIGAFGEVCLARKVDTKALYATKTLRKKDVLLRNQVAHVKAERDILAEADNEWVVRLYYSFQDKDNLYFVMDYIPGGDMMSLLIRMGIFPESLARFYIAELTCAVESVHKMGFIHRDIKPDNILIDRDGHIKLTDFGLCTGFRWTHDSKYYQSGDHPRQDSMDFSNEWGDPSSCRCGDRLKPLERRAARQHQRCLAHSLVGTPNYIAPEVLLRTGYTQLCDWWSVGVILFEMLVGQPPFLAQTPLETQMKVINWQTSLHIPPQAKLSPEASDLIIKLCRGPEDRLGKNGADEIKAHPFFKTIDFSSDLRQQSASYIPKITHPTDTSNFDPVDPDKLWSDDNEEENVNDTLNGWYKNGKHPEHAFYEFTFRRFFDDNGYPYNYPKPIEYEYINSQGSEQQSDEDDQNTGSEIKNRDLVYV | markedly reduced levels of phosphorylation of YAP S127A mutant by LATS1/2 | – |
| LATS2 (human cDNA, GenBank Accession No. NP-055387.2, Flag- or HA-tagged) (protein) MRPKTFPATTYSGNSRQRLQEIREGLKQPSKSSVQGLPAGPNSDTSLDAKVLGSKDATRQQQQMRATPKFGPYQKALREIRYSLLPFANESGTSAAAEVNRQMLQELVNAGCDQEMAGRALKQTGSRSIEAALEYISKMGYLDPRNEQIVRVIKQTSPGKGLMPTPVTRRPSFEGTGDSFASYHQLSGTPYEGPSFGADGPTALEEMPRPYVDYLFPGVGPHGPGHQHQHPPKGYGASVEAAGAHFPLQGAHYGRPHLLVPGEPLGYGVQRSPSFQSKTPPETGGYASLPTKGQGGPPGAGLAFPPPAAGLYVPHPHHKQAGPAAHQLHVLGSRSQVFASDSPPQSLLTPSRNSLNVDLYELGSTSVQQWPAATLARRDSLQKPGLEAPPRAHVAFRPDCPVPSRTNSFNSHQPRPGPPGKAEPSLPAPNTVTAVTAAHILHPVKSVRVLRPEPQTAVGPSHPAWVPAPAPAPAPAPAPAAEGLDAKEEHALALGGAGAFPLDVEYGGPDRRCPPPPYPKHLLLRSKSEQYDLDSLCAGMEQSLRAGPNEPEGGDKSRKSAKGDKGGKDKKQIQTSPVPVRKNSRDEEKRESRIKSYSPYAFKFFMEQHVENVIKTYQQKVNRRLQLEQEMAKAGLCEAEQEQMRKILYQKESNYNRLKRAKMDKSMFVKIKTLGIGAFGEVCLACKVDTHALYAMKTLRKKDVLNRNQVAHVKAERDILAEADNEWVVKLYYSFQDKDSLYFVMDYIPGGDMMSLLIRMEVFPEHLARFYIAELTLAIESVHKMGFIHRDIKPDNILIDLDGHIKLTDFGLCTGFRWTHNSKYYQKGSHVRQDSMEPSDLWDDVSNCRCGDRLKTLEQRARKQHQRCLAHSLVGTPNYIAPEVLLRKGYTQLCDWWSVGVILFEMLVGQPPFLAPTPTETQLKVINWENTLHIPAQVKLSPEARDLITKLCCSADHRLGRNGADDLKAHPFFSAIDFSSDIRKQPAPYVPTISHPMDTSNFDPVDEESPWNDASEGSTKAWDTLTSPNNKHPEHAFYEFTFRRFFDDNGYPFRCPKPSGAEASQAESSDLESSDLVDQTEGCQPVYV | markedly reduced levels of phosphorylation of YAP S127A mutant by LATS1/2 | only the S127A mutant was not phosphorylated by activated LATS2 in cells |
